Experimental data published in patent US12630600B2 (MEDIMMUNE LIMITED, priority 2022, dated 2026).
Starred links: 1 amine or outer side, 2 acyl side, 3 side chain; linkers in the order of their positions; H or OH if unused. Non-standard residues stand in square brackets, D forms with d. Groups on a side chain read outwards from the residue. No end group written: not given here. *: point of attachment. C20 diacid = O=C(O)CCCCCCCCCCCCCCCCCCC(=O)*; C18 diacid = O=C(O)CCCCCCCCCCCCCCCCC(=O)*; γGlu = O=C(O)[C@H](CCC(=O)[*:2])N[*:1]; αMeF = C[C@](N)(Cc1ccccc1)C(=O)O; AEEA = NCCOCCOCC(=O)O; Aib = CC(C)(N)C(=O)O

Legend:
human GLP-1 receptor = human GLP-1 receptor (human, UniProt P43220); assay: cell-based or functional assay
human glucagon receptor = human glucagon receptor (human, UniProt P47871); assay: cell-based or functional assay

B1: Peptide 144 (peptide)
peptide: H[Aib]QGTFTSDVSK[αMeF]LDSK([γGlu-γGlu-AEEA-AEEA-γGlu-γGlu-C18 diacid])RARDFVRWLLE[Aib]G-OH
modifications: N-terminus assumed
SMILES: CC(C)C[C@H](NC(=O)[C@H](Cc1c[nH]c2ccccc12)NC(=O)[C@H](CCCNC(=N)N)NC(=O)[C@@H](NC(=O)[C@H](Cc1ccccc1)NC(=O)[C@H](CC(=O)O)NC(=O)[C@H](CCCNC(=N)N)NC(=O)[C@H](C)NC(=O)[C@H](CCCNC(=N)N)NC(=O)[C@H](CCCCNC(=O)CC[C@H](NC(=O)CC[C@H](NC(=O)COCCOCCNC(=O)COCCOCCNC(=O)CC[C@H](NC(=O)CC[C@H](NC(=O)CCCCCCCCCCCCCCCCC(=O)O)C(=O)O)C(=O)O)C(=O)O)C(=O)O)NC(=O)[C@H](CO)NC(=O)[C@H](CC(=O)O)NC(=O)[C@H](CC(C)C)NC(=O)[C@](C)(Cc1ccccc1)NC(=O)[C@H](CCCCN)NC(=O)[C@H](CO)NC(=O)[C@@H](NC(=O)[C@H](CC(=O)O)NC(=O)[C@H](CO)NC(=O)[C@@H](NC(=O)[C@H](Cc1ccccc1)NC(=O)[C@@H](NC(=O)CNC(=O)[C@H](CCC(N)=O)NC(=O)C(C)(C)NC(=O)[C@@H](N)Cc1c[nH]cn1)[C@@H](C)O)[C@@H](C)O)C(C)C)C(C)C)C(=O)N[C@@H](CC(C)C)C(=O)N[C@@H](CCC(=O)O)C(=O)NC(C)(C)C(=O)NCC(=O)O
For B1, the “cAMP production EC50” value (human GLP-1 receptor) was 0.0452 nM and the “cAMP production EC50” value (human glucagon receptor) was 0.702 nM.

B2: Peptide 145 (peptide)
peptide: H[Aib]QGTFTSDVSK[αMeF]LDSK([AEEA-AEEA-γGlu-C18 diacid])RAQDFVRWLASRGI-OH
modifications: N-terminus assumed
SMILES: CC[C@H](C)[C@H](NC(=O)CNC(=O)[C@H](CCCNC(=N)N)NC(=O)[C@H](CO)NC(=O)[C@H](C)NC(=O)[C@H](CC(C)C)NC(=O)[C@H](Cc1c[nH]c2ccccc12)NC(=O)[C@H](CCCNC(=N)N)NC(=O)[C@@H](NC(=O)[C@H](Cc1ccccc1)NC(=O)[C@H](CC(=O)O)NC(=O)[C@H](CCC(N)=O)NC(=O)[C@H](C)NC(=O)[C@H](CCCNC(=N)N)NC(=O)[C@H](CCCCNC(=O)COCCOCCNC(=O)COCCOCCNC(=O)CC[C@H](NC(=O)CCCCCCCCCCCCCCCCC(=O)O)C(=O)O)NC(=O)[C@H](CO)NC(=O)[C@H](CC(=O)O)NC(=O)[C@H](CC(C)C)NC(=O)[C@](C)(Cc1ccccc1)NC(=O)[C@H](CCCCN)NC(=O)[C@H](CO)NC(=O)[C@@H](NC(=O)[C@H](CC(=O)O)NC(=O)[C@H](CO)NC(=O)[C@@H](NC(=O)[C@H](Cc1ccccc1)NC(=O)[C@@H](NC(=O)CNC(=O)[C@H](CCC(N)=O)NC(=O)C(C)(C)NC(=O)[C@@H](N)Cc1c[nH]cn1)[C@@H](C)O)[C@@H](C)O)C(C)C)C(C)C)C(=O)O
B2 was tested, and the “cAMP production EC50” value (human GLP-1 receptor) was 0.0226 nM and the “cAMP production EC50” value (human glucagon receptor) was 4.59 nM.

B3: Peptide 151 (peptide)
peptide: H[Aib]QGTFTSDVSK[αMeF]LDSK([AEEA-AEEA-γGlu-C20 diacid])RAQDFVRWLL[Aib]TE-OH
modifications: N-terminus assumed
SMILES: CC(C)C[C@H](NC(=O)[C@H](Cc1c[nH]c2ccccc12)NC(=O)[C@H](CCCNC(=N)N)NC(=O)[C@@H](NC(=O)[C@H](Cc1ccccc1)NC(=O)[C@H](CC(=O)O)NC(=O)[C@H](CCC(N)=O)NC(=O)[C@H](C)NC(=O)[C@H](CCCNC(=N)N)NC(=O)[C@H](CCCCNC(=O)COCCOCCNC(=O)COCCOCCNC(=O)CC[C@H](NC(=O)CCCCCCCCCCCCCCCCCCC(=O)O)C(=O)O)NC(=O)[C@H](CO)NC(=O)[C@H](CC(=O)O)NC(=O)[C@H](CC(C)C)NC(=O)[C@](C)(Cc1ccccc1)NC(=O)[C@H](CCCCN)NC(=O)[C@H](CO)NC(=O)[C@@H](NC(=O)[C@H](CC(=O)O)NC(=O)[C@H](CO)NC(=O)[C@@H](NC(=O)[C@H](Cc1ccccc1)NC(=O)[C@@H](NC(=O)CNC(=O)[C@H](CCC(N)=O)NC(=O)C(C)(C)NC(=O)[C@@H](N)Cc1c[nH]cn1)[C@@H](C)O)[C@@H](C)O)C(C)C)C(C)C)C(=O)N[C@@H](CC(C)C)C(=O)NC(C)(C)C(=O)N[C@H](C(=O)N[C@@H](CCC(=O)O)C(=O)O)[C@@H](C)O
B3 was tested, and the “cAMP production EC50” value (human GLP-1 receptor) was 0.111 nM and the “cAMP production EC50” value (human glucagon receptor) was 0.178 nM.

B4: Peptide 146 (peptide)
peptide: H[Aib]QGTFTSDVSK[αMeF]LDSK([AEEA-AEEA-γGlu-C18 diacid])RAQDFVRWLASR-OH
modifications: N-terminus assumed
SMILES: CC(C)C[C@H](NC(=O)[C@H](Cc1c[nH]c2ccccc12)NC(=O)[C@H](CCCNC(=N)N)NC(=O)[C@@H](NC(=O)[C@H](Cc1ccccc1)NC(=O)[C@H](CC(=O)O)NC(=O)[C@H](CCC(N)=O)NC(=O)[C@H](C)NC(=O)[C@H](CCCNC(=N)N)NC(=O)[C@H](CCCCNC(=O)COCCOCCNC(=O)COCCOCCNC(=O)CC[C@H](NC(=O)CCCCCCCCCCCCCCCCC(=O)O)C(=O)O)NC(=O)[C@H](CO)NC(=O)[C@H](CC(=O)O)NC(=O)[C@H](CC(C)C)NC(=O)[C@](C)(Cc1ccccc1)NC(=O)[C@H](CCCCN)NC(=O)[C@H](CO)NC(=O)[C@@H](NC(=O)[C@H](CC(=O)O)NC(=O)[C@H](CO)NC(=O)[C@@H](NC(=O)[C@H](Cc1ccccc1)NC(=O)[C@@H](NC(=O)CNC(=O)[C@H](CCC(N)=O)NC(=O)C(C)(C)NC(=O)[C@@H](N)Cc1c[nH]cn1)[C@@H](C)O)[C@@H](C)O)C(C)C)C(C)C)C(=O)N[C@@H](C)C(=O)N[C@@H](CO)C(=O)N[C@@H](CCCNC(=N)N)C(=O)O
With B4 the “cAMP production EC50” value (human GLP-1 receptor) was 0.0246 nM and the “cAMP production EC50” value (human glucagon receptor) was 1.63 nM.

B5: Peptide 150 (peptide)
peptide: H[Aib]QGTFTSDVSK[αMeF]LDSK([AEEA-AEEA-γGlu-C18 diacid])RAQDFVQWLL[Aib]TE-OH
modifications: not fully specified
With B5 the “cAMP production EC50” value (human GLP-1 receptor) was 0.166 nM and the “cAMP production EC50” value (human glucagon receptor) was 0.355 nM.

B6: Peptide 148 (peptide)
peptide: H[Aib]QGTFTSDVSK[αMeF]LDSK([AEEA-AEEA-γGlu-C18 diacid])RAQDFVRWIAE[Aib]G-OH
modifications: N-terminus assumed
SMILES: CC[C@H](C)[C@H](NC(=O)[C@H](Cc1c[nH]c2ccccc12)NC(=O)[C@H](CCCNC(=N)N)NC(=O)[C@@H](NC(=O)[C@H](Cc1ccccc1)NC(=O)[C@H](CC(=O)O)NC(=O)[C@H](CCC(N)=O)NC(=O)[C@H](C)NC(=O)[C@H](CCCNC(=N)N)NC(=O)[C@H](CCCCNC(=O)COCCOCCNC(=O)COCCOCCNC(=O)CC[C@H](NC(=O)CCCCCCCCCCCCCCCCC(=O)O)C(=O)O)NC(=O)[C@H](CO)NC(=O)[C@H](CC(=O)O)NC(=O)[C@H](CC(C)C)NC(=O)[C@](C)(Cc1ccccc1)NC(=O)[C@H](CCCCN)NC(=O)[C@H](CO)NC(=O)[C@@H](NC(=O)[C@H](CC(=O)O)NC(=O)[C@H](CO)NC(=O)[C@@H](NC(=O)[C@H](Cc1ccccc1)NC(=O)[C@@H](NC(=O)CNC(=O)[C@H](CCC(N)=O)NC(=O)C(C)(C)NC(=O)[C@@H](N)Cc1c[nH]cn1)[C@@H](C)O)[C@@H](C)O)C(C)C)C(C)C)C(=O)N[C@@H](C)C(=O)N[C@@H](CCC(=O)O)C(=O)NC(C)(C)C(=O)NCC(=O)O
With B6 the “cAMP production EC50” value (human GLP-1 receptor) was 0.0402 nM and the “cAMP production EC50” value (human glucagon receptor) was 0.568 nM.

B7: Peptide 149 (peptide)
peptide: H[Aib]QGTFTSDVSK[αMeF]LDSK([AEEA-AEEA-γGlu-C18 diacid])RAQDFVRWVVE[Aib]G-OH
modifications: N-terminus assumed
SMILES: CC(C)C[C@H](NC(=O)[C@](C)(Cc1ccccc1)NC(=O)[C@H](CCCCN)NC(=O)[C@H](CO)NC(=O)[C@@H](NC(=O)[C@H](CC(=O)O)NC(=O)[C@H](CO)NC(=O)[C@@H](NC(=O)[C@H](Cc1ccccc1)NC(=O)[C@@H](NC(=O)CNC(=O)[C@H](CCC(N)=O)NC(=O)C(C)(C)NC(=O)[C@@H](N)Cc1c[nH]cn1)[C@@H](C)O)[C@@H](C)O)C(C)C)C(=O)N[C@@H](CC(=O)O)C(=O)N[C@@H](CO)C(=O)N[C@@H](CCCCNC(=O)COCCOCCNC(=O)COCCOCCNC(=O)CC[C@H](NC(=O)CCCCCCCCCCCCCCCCC(=O)O)C(=O)O)C(=O)N[C@@H](CCCNC(=N)N)C(=O)N[C@@H](C)C(=O)N[C@@H](CCC(N)=O)C(=O)N[C@@H](CC(=O)O)C(=O)N[C@@H](Cc1ccccc1)C(=O)N[C@H](C(=O)N[C@@H](CCCNC(=N)N)C(=O)N[C@@H](Cc1c[nH]c2ccccc12)C(=O)N[C@H](C(=O)N[C@H](C(=O)N[C@@H](CCC(=O)O)C(=O)NC(C)(C)C(=O)NCC(=O)O)C(C)C)C(C)C)C(C)C
B7 was tested, and the “cAMP production EC50” value (human GLP-1 receptor) was 0.00871 nM and the “cAMP production EC50” value (human glucagon receptor) was 2.65 nM.

B8: Peptide 147 (peptide)
peptide: H[Aib]QGTFTSDVSK[αMeF]LDSK([AEEA-AEEA-γGlu-C18 diacid])RAQDFVRWLEA[Aib]G-OH
modifications: N-terminus assumed
SMILES: CC(C)C[C@H](NC(=O)[C@H](Cc1c[nH]c2ccccc12)NC(=O)[C@H](CCCNC(=N)N)NC(=O)[C@@H](NC(=O)[C@H](Cc1ccccc1)NC(=O)[C@H](CC(=O)O)NC(=O)[C@H](CCC(N)=O)NC(=O)[C@H](C)NC(=O)[C@H](CCCNC(=N)N)NC(=O)[C@H](CCCCNC(=O)COCCOCCNC(=O)COCCOCCNC(=O)CC[C@H](NC(=O)CCCCCCCCCCCCCCCCC(=O)O)C(=O)O)NC(=O)[C@H](CO)NC(=O)[C@H](CC(=O)O)NC(=O)[C@H](CC(C)C)NC(=O)[C@](C)(Cc1ccccc1)NC(=O)[C@H](CCCCN)NC(=O)[C@H](CO)NC(=O)[C@@H](NC(=O)[C@H](CC(=O)O)NC(=O)[C@H](CO)NC(=O)[C@@H](NC(=O)[C@H](Cc1ccccc1)NC(=O)[C@@H](NC(=O)CNC(=O)[C@H](CCC(N)=O)NC(=O)C(C)(C)NC(=O)[C@@H](N)Cc1c[nH]cn1)[C@@H](C)O)[C@@H](C)O)C(C)C)C(C)C)C(=O)N[C@@H](CCC(=O)O)C(=O)N[C@@H](C)C(=O)NC(C)(C)C(=O)NCC(=O)O
In the case of B8, the “cAMP production EC50” value (human GLP-1 receptor) is reported as 0.0153 nM and the “cAMP production EC50” value (human glucagon receptor) is reported as 0.0435 nM.
